Assay results published in patent US20150147336A1.

What was measured:
IFNα2a (human) = IFNα2a (human) (UniProt P01563); assay: cell-based or functional assay
human leukocyte IFN = assay: cell-based or functional assay

MEDI-545 (antibody)
HERC5 gene expression (TAQMAN, Average) in whole blood of donor 107 with 100 IU IFNα2a + MEDI-545; same donor VEH 1.00, IFN alone 41.12 (relative expression (Average)) (IFNα2a (human)): 6.29
HERC5 gene expression (TAQMAN, Average) in whole blood of donor 163 with 100 IU IFNα2a + MEDI-545; same donor VEH 1.05, IFN alone 75.81 (relative expression (Average)) (IFNα2a (human)): 7.83
HERC5 gene expression (TAQMAN, Average) in whole blood of donor 175 with 100 IU IFNα2a + MEDI-545; same donor VEH 1.19, IFN alone 74.58 (relative expression (Average)) (IFNα2a (human)): 6.89
IFN α2a-induced IFIT1 gene expression in whole blood (TAQMAN), sample 107 IFN + 545 (107 IFN 80.21; 107 VEH 1.00) (relative expression (Average)) (IFNα2a (human)): 13.1
IFN α2a-induced IFIT1 gene expression in whole blood (TAQMAN), sample 163 IFN + 545 (163 IFN 51.65; 163 VEH 0.92) (relative expression (Average)) (IFNα2a (human)): 7.6
IFN α2a-induced IFIT1 gene expression in whole blood (TAQMAN), sample 175 IFN + 545 (175 IFN 82.98; 175 VEH 1.47) (relative expression (Average)) (IFNα2a (human)): 8.4
IFN α2a-induced IFIT3 gene expression in whole blood (TAQMAN), sample 107 IFN + 545 (107 IFN 38.43; 107 VEH 1.00) (relative expression (Average)) (IFNα2a (human)): 6.78
IFN α2a-induced IFIT3 gene expression in whole blood (TAQMAN), sample 163 IFN + 545 (163 IFN 25.94; 163 VEH 0.62) (relative expression (Average)) (IFNα2a (human)): 4.58
IFN α2a-induced IFIT3 gene expression in whole blood (TAQMAN), sample 175 IFN + 545 (175 IFN 35.02; 175 VEH 1.32) (relative expression (Average)) (IFNα2a (human)): 5.28
IFN α2a-induced IL6ST gene expression in whole blood (TAQMAN), sample 107 IFN + 545 (107 IFN 3.54; 107 VEH 1.00) (relative expression (Average)) (IFNα2a (human)): 2.62
IFN α2a-induced IL6ST gene expression in whole blood (TAQMAN), sample 163 IFN + 545 (163 IFN 7.69; 163 VEH 2.50) (relative expression (Average)) (IFNα2a (human)): 4.18
IFN α2a-induced IL6ST gene expression in whole blood (TAQMAN), sample 175 IFN + 545 (175 IFN 7.62; 175 VEH 1.37) (relative expression (Average)) (IFNα2a (human)): 2.95
IFN α2a-induced IRF7 gene expression in whole blood (TAQMAN), sample 107 IFN + 545 (107 IFN 18.53; 107 VEH 1.00) (relative expression (Average)) (IFNα2a (human)): 3.42
IFN α2a-induced IRF7 gene expression in whole blood (TAQMAN), sample 163 IFN + 545 (163 IFN 17.16; 163 VEH 0.91) (relative expression (Average)) (IFNα2a (human)): 2.92
IFN α2a-induced IRF7 gene expression in whole blood (TAQMAN), sample 175 IFN + 545 (175 IFN 24.65; 175 VEH 1.25) (relative expression (Average)) (IFNα2a (human)): 2.43
IFN α2a-induced LY6E gene expression in whole blood (TAQMAN), sample 107 IFN + 545 (107 IFN 19.09; 107 VEH 1.00) (relative expression (Average)) (IFNα2a (human)): 3.5
IFN α2a-induced LY6E gene expression in whole blood (TAQMAN), sample 163 IFN + 545 (163 IFN 13.52; 163 VEH 1.02) (relative expression (Average)) (IFNα2a (human)): 4.8
IFN α2a-induced LY6E gene expression in whole blood (TAQMAN), sample 175 IFN + 545 (175 IFN 19.32; 175 VEH 1.61) (relative expression (Average)) (IFNα2a (human)): 3.74
IFN α2a-induced MARCKS gene expression in whole blood (TAQMAN), sample 163 IFN + 545 (163 IFN 2.59; 163 VEH 0.56) (relative expression (Average)) (IFNα2a (human)): 1.55
IFN α2a-induced MARCKS gene expression in whole blood (TAQMAN), sample 175 IFN + 545 (175 IFN 2.59; 175 VEH 0.41) (relative expression (Average)) (IFNα2a (human)): 0.55
IFN α2a-induced RAB8B gene expression in whole blood (TAQMAN), sample 163 IFN + 545 (163 IFN 2.20; 163 VEH 0.70) (relative expression (Average)) (IFNα2a (human)): 1.18
IFN α2a-induced RAB8B gene expression in whole blood (TAQMAN), sample 175 IFN + 545 (175 IFN 2.63; 175 VEH 0.64) (relative expression (Average)) (IFNα2a (human)): 1.15
OAS1 gene expression (TAQMAN, Average) in whole blood of donor 107 with 100 IU IFNα2a + MEDI-545; same donor VEH 1.00, IFN alone 15.11 (relative expression (Average)) (IFNα2a (human)): 3.45
OAS1 gene expression (TAQMAN, Average) in whole blood of donor 163 with 100 IU IFNα2a + MEDI-545; same donor VEH 0.77, IFN alone 14.19 (relative expression (Average)) (IFNα2a (human)): 3.05
OAS1 gene expression (TAQMAN, Average) in whole blood of donor 175 with 100 IU IFNα2a + MEDI-545; same donor VEH 1.62, IFN alone 22.09 (relative expression (Average)) (IFNα2a (human)): 4.04
OAS3 gene expression (TAQMAN, Average) in whole blood of donor 107 with 100 IU IFNα2a + MEDI-545; same donor VEH 1.00, IFN alone 49.04 (relative expression (Average)) (IFNα2a (human)): 7.03
OAS3 gene expression (TAQMAN, Average) in whole blood of donor 163 with 100 IU IFNα2a + MEDI-545; same donor VEH 0.49, IFN alone 42.01 (relative expression (Average)) (IFNα2a (human)): 14.6
OAS3 gene expression (TAQMAN, Average) in whole blood of donor 175 with 100 IU IFNα2a + MEDI-545; same donor VEH 1.27, IFN alone 37.87 (relative expression (Average)) (IFNα2a (human)): 3.92
RSAD2 gene expression (TAQMAN, Average) in whole blood of donor 107 with 100 IU IFNα2a + MEDI-545; same donor VEH 1.00, IFN alone 109.64 (relative expression (Average)) (IFNα2a (human)): 9.88
RSAD2 gene expression (TAQMAN, Average) in whole blood of donor 163 with 100 IU IFNα2a + MEDI-545; same donor VEH 0.56, IFN alone 71.47 (relative expression (Average)) (IFNα2a (human)): 4.39
RSAD2 gene expression (TAQMAN, Average) in whole blood of donor 175 with 100 IU IFNα2a + MEDI-545; same donor VEH 1.88, IFN alone 126.27 (relative expression (Average)) (IFNα2a (human)): 8.43
neutralization of overexpression of ISG15, USP18 and IFIT2 in keratinocytes stimulated with 150 I.U./mL leukocyte IFN (human leukocyte IFN): 70 to 100%

R347 (antibody)
HERC5 gene expression (TAQMAN, Average) in whole blood of donor 107 with 100 IU IFNα2a + R347 control Ab; same donor VEH 1.00, IFN alone 41.12 (relative expression (Average)) (IFNα2a (human)): 55
HERC5 gene expression (TAQMAN, Average) in whole blood of donor 163 with 100 IU IFNα2a + R347 control Ab; same donor VEH 1.05, IFN alone 75.81 (relative expression (Average)) (IFNα2a (human)): 95.4
HERC5 gene expression (TAQMAN, Average) in whole blood of donor 175 with 100 IU IFNα2a + R347 control Ab; same donor VEH 1.19, IFN alone 74.58 (relative expression (Average)) (IFNα2a (human)): 98.2
IFN α2a-induced IFIT1 gene expression in whole blood (TAQMAN), sample 107 IFN + R347 (107 IFN 80.21; 107 VEH 1.00) (relative expression (Average)) (IFNα2a (human)): 86.4
IFN α2a-induced IFIT1 gene expression in whole blood (TAQMAN), sample 163 IFN + R3437 (163 IFN 51.65; 163 VEH 0.92) (relative expression (Average)) (IFNα2a (human)): 86.6
IFN α2a-induced IFIT3 gene expression in whole blood (TAQMAN), sample 107 IFN + R347 (107 IFN 38.43; 107 VEH 1.00) (relative expression (Average)) (IFNα2a (human)): 42.6
IFN α2a-induced IFIT3 gene expression in whole blood (TAQMAN), sample 163 IFN + R3437 (163 IFN 25.94; 163 VEH 0.62) (relative expression (Average)) (IFNα2a (human)): 44.8
IFN α2a-induced IFIT3 gene expression in whole blood (TAQMAN), sample 175 IFN + R347 (175 IFN 35.02; 175 VEH 1.32) (relative expression (Average)) (IFNα2a (human)): 29.7
IFN α2a-induced IL6ST gene expression in whole blood (TAQMAN), sample 107 IFN + R347 (107 IFN 3.54; 107 VEH 1.00) (relative expression (Average)) (IFNα2a (human)): 8.19
IFN α2a-induced IL6ST gene expression in whole blood (TAQMAN), sample 163 IFN + R3437 (163 IFN 7.69; 163 VEH 2.50) (relative expression (Average)) (IFNα2a (human)): 13.2
IFN α2a-induced IL6ST gene expression in whole blood (TAQMAN), sample 175 IFN + R347 (175 IFN 7.62; 175 VEH 1.37) (relative expression (Average)) (IFNα2a (human)): 23.9
IFN α2a-induced IRF7 gene expression in whole blood (TAQMAN), sample 107 IFN + R347 (107 IFN 18.53; 107 VEH 1.00) (relative expression (Average)) (IFNα2a (human)): 19.5
IFN α2a-induced IRF7 gene expression in whole blood (TAQMAN), sample 163 IFN + R3437 (163 IFN 17.16; 163 VEH 0.91) (relative expression (Average)) (IFNα2a (human)): 23.3
IFN α2a-induced IRF7 gene expression in whole blood (TAQMAN), sample 175 IFN + R347 (175 IFN 24.65; 175 VEH 1.25) (relative expression (Average)) (IFNα2a (human)): 26.3
IFN α2a-induced LY6E gene expression in whole blood (TAQMAN), sample 107 IFN + R347 (107 IFN 19.09; 107 VEH 1.00) (relative expression (Average)) (IFNα2a (human)): 12.5
IFN α2a-induced LY6E gene expression in whole blood (TAQMAN), sample 163 IFN + R3437 (163 IFN 13.52; 163 VEH 1.02) (relative expression (Average)) (IFNα2a (human)): 22.6
IFN α2a-induced LY6E gene expression in whole blood (TAQMAN), sample 175 IFN + R347 (175 IFN 19.32; 175 VEH 1.61) (relative expression (Average)) (IFNα2a (human)): 15.6
IFN α2a-induced MARCKS gene expression in whole blood (TAQMAN), sample 107 IFN + R347 (107 FN 3.97; 107 VEH 1.00) (relative expression (Average)) (IFNα2a (human)): 2.99
IFN α2a-induced MARCKS gene expression in whole blood (TAQMAN), sample 163 IFN + R3437 (163 IFN 2.59; 163 VEH 0.56) (relative expression (Average)) (IFNα2a (human)): 4.42
IFN α2a-induced MARCKS gene expression in whole blood (TAQMAN), sample 175 IFN + R347 (175 IFN 2.59; 175 VEH 0.41) (relative expression (Average)) (IFNα2a (human)): 3.38
IFN α2a-induced RAB8B gene expression in whole blood (TAQMAN), sample 107 IFN + R347 (107 IFN 3.45; 107 VEH 1.0) (relative expression (Average)) (IFNα2a (human)): 3.15
IFN α2a-induced RAB8B gene expression in whole blood (TAQMAN), sample 163 IFN + R3437 (163 IFN 2.20; 163 VEH 0.70) (relative expression (Average)) (IFNα2a (human)): 3.71
IFN α2a-induced RAB8B gene expression in whole blood (TAQMAN), sample 175 IFN + R347 (175 IFN 2.63; 175 VEH 0.64) (relative expression (Average)) (IFNα2a (human)): 2.51
OAS1 gene expression (TAQMAN, Average) in whole blood of donor 107 with 100 IU IFNα2a + R347 control Ab; same donor VEH 1.00, IFN alone 15.11 (relative expression (Average)) (IFNα2a (human)): 17.8
OAS1 gene expression (TAQMAN, Average) in whole blood of donor 163 with 100 IU IFNα2a + R347 control Ab; same donor VEH 0.77, IFN alone 14.19 (relative expression (Average)) (IFNα2a (human)): 22.4
OAS1 gene expression (TAQMAN, Average) in whole blood of donor 175 with 100 IU IFNα2a + R347 control Ab; same donor VEH 1.62, IFN alone 22.09 (relative expression (Average)) (IFNα2a (human)): 15.2
OAS3 gene expression (TAQMAN, Average) in whole blood of donor 107 with 100 IU IFNα2a + R347 control Ab; same donor VEH 1.00, IFN alone 49.04 (relative expression (Average)) (IFNα2a (human)): 76.9
OAS3 gene expression (TAQMAN, Average) in whole blood of donor 163 with 100 IU IFNα2a + R347 control Ab; same donor VEH 0.49, IFN alone 42.01 (relative expression (Average)) (IFNα2a (human)): 52.6
OAS3 gene expression (TAQMAN, Average) in whole blood of donor 175 with 100 IU IFNα2a + R347 control Ab; same donor VEH 1.27, IFN alone 37.87 (relative expression (Average)) (IFNα2a (human)): 34.9
RSAD2 gene expression (TAQMAN, Average) in whole blood of donor 107 with 100 IU IFNα2a + R347 control Ab; same donor VEH 1.00, IFN alone 109.64 (relative expression (Average)) (IFNα2a (human)): 107
RSAD2 gene expression (TAQMAN, Average) in whole blood of donor 163 with 100 IU IFNα2a + R347 control Ab; same donor VEH 0.56, IFN alone 71.47 (relative expression (Average)) (IFNα2a (human)): 115
RSAD2 gene expression (TAQMAN, Average) in whole blood of donor 175 with 100 IU IFNα2a + R347 control Ab; same donor VEH 1.88, IFN alone 126.27 (relative expression (Average)) (IFNα2a (human)): 91
